Measurements as given in US20090060920A1 (Eli Lilly, published 2009).

B1: 4-28 (cys) ghrelin fragment (peptide)
peptide: FLSPEHQRVQQRKESKKPPAKLQPRC
B2: Fab 5611 (Fab, V domains shown)
VH: QVQLQQSEAELVRPGSSVKISCKASGYAFSNYWMNWVKQRPGQGLEWIGQIYPGDGDTKYNGKFKGKATLTADKSSSSAYMQLSSLTSEDSAVYFCVITTVVGGDSDVWGAGTTVTVSS
VL: DLVLTQSPASLAVSLGQRATISCRASKSVSTSGYSYMHWYQQKPGQPPKLLIYLASNLESGVPARFSGSGSGTDFTLNIHPVEEEDAATYYCQHSRELPYTFGGGTKLEIKR
notes: Murine Fab from an Omniclonal library of immunised C57Bl6 mice
B4: 9-28 ghrelin fragment (peptide)
peptide: HQRVQQRKESKKPPAKLQPR

How the values were obtained:
Fab 5611 = biological target: B2; test: competition ELISA: peptide preincubated with 10 nM Fab 5611, mixture added to a plate coated with desacyl ghrelin, bound Fab detected with anti-mouse kappa-HRP, A490
Method: (§1) (450-655061) by adding 60 uL of a 0.4 μg/ml (in H₂O) solution to each well. The assay plate is placed in a dry 37° C. incubator overnight. The next day, the assay plate is washed (wash buffer: 0.1% Tween 20, Tris-buffered saline (TBS)), and blocked with casein/PBS (Pierce 37528).
(§2) “2-28 acyl ghrelin” and “3-28 acyl ghrelin” in FIG. 1 refer to acyl ghrelins (SEQ ID NO: 17) missing the first one or two amino acids at the N-terminal end of the molecule, respectively. In FIG. 2, “1-8 (cys) desacyl” refers to a desacyl ghrelin fragment consisting of amino acids 1-8 of SEQ ID NO: 17, with an additional cysteine residue at the C-terminus. “4-28 (cys)” refers to a ghrelin fragment consisting of amino acids 4-28, also with an additional cysteine residue at the C-terminus. “9-28” refers to a ghrelin fragment consisting of amino acids 9-28 of SEQ ID NO: 17. Dilutions of the ghrelin, ghrelin analogs, and Fab are made in casein/PBS. These mixtures are incubated in a separate plate for 1 hour at room temperature.
(§3) The blocking solution is removed from the assay plate and 50 uL of the ghrelin/Fab mixture are added to the assay plate in duplicate. This is allowed to sit for 30 minutes at room temperature. […] The reaction is stopped with 100 uL of 1 N HCl, and the absorbance of the wells is read at 490 nm (Molecular Device SpectraMax250).

desacyl human ghrelin [1] = biological target: T1, desacyl human ghrelin (human); test: SPR (BIAcore 2000), Fab captured by goat anti-mouse kappa, ghrelin in solution, 25 C
T1 construct: also called desacyl ghrelin; 1-28 desacyl ghrelin
Method: (§4) Except where noted, all reagents and materials are purchased from BIAcore® AB (Upsala, Sweden). All measurements are performed at 25° C. Samples containing rat or human desacyl ghrelin are dissolved in HBS-EP buffer (150 mM sodium chloride, 3 mM EDTA, 0.005% (w/v) surfactant P-20, and 10 mM HEPES, pH 7.4). A capture antibody, goat anti-mouse Kappa (Southern Biotechnology, Inc), is immobilized onto flow cells using amine-coupling chemistry. Flow cells (1-4) are activated for 7 minutes with a 1:1 mixture of 0.1 M N-hydroxysuccinimide and 0.1 M 3-(N,N-dimethylamino)propyl-N-ethylcarbodiimide at a flow rate of 10 μl/min. Goat anti-mouse Kappa (30 μg/mL in 10 mM sodium acetate, pH 4.5) is manually injected over all 4 flow cells at a flow rate of 10 μL/min. The surface density is monitored and additional goat anti-mouse Kappa is injected if needed to individual cells until all flow cells reach a surface density of 4500-5000 response units (RU). Surfaces are blocked with a 7 minute injection of 1 M ethanolamine-HCl, pH 8.5 (10 μL/min). […]
(§5) Collection of kinetic binding data is performed at maximum flow rate (100 μL/min) and a low surface density to minimize mass transport effects. […] Signal is monitored as flow cell 2 minus flow cell 1, flow cell 3 minus flow cell 1 and flow cell 4 minus flow cell 1. […]

9-28 ghrelin fragment = biological target: B4; test: competition ELISA on coated desacyl ghrelin, Fab at 10 nM
Method: as §1, §2, §3

[2] = biological target: B1; test: as above
Method: as §1, §2, §3

desacyl human ghrelin [3] = biological target: T1, desacyl human ghrelin; test: SPR (BIAcore 2000), antibody captured by goat anti-mouse kappa, ghrelin in solution, 25 C
Method: as §4, §5

Binder: B1
- binding result (Fab 5611): no binding (tested: 1000 nM)

Binder: B2
- Kd (desacyl human ghrelin [1]): 0.138 nM
- binding result (9-28 ghrelin fragment): no binding (tested: at the concentrations tested)
- binding result [2]: no binding (tested: at the concentrations tested)

B3: E8 mouse IgG1 monoclonal antibody (antibody, V domains shown)
VH: QVQLQQSEAELVRPGSSVKISCKASGYAFSNYWMNWVKQRPGQGLEWIGQIYPGDGDTKYNGKFKGKATLTADKSSSSAYMQLSSLTSEDSAVYFCVITTVVGGDSDVWGAGTTVTVSS
VL: DLVLTQSPASLAVSLGQRATISCRASKSVSTSGYSYMHWYQQKPGQPPKLLIYLASNLESGVPARFSGSGSGTDFTLNIHPVEEEDAATYYCQHSRELPYTFGGGTKLEIKR
notes: domain: constant domain of mouse IgG1; also called E8 antibody; E8 mouse IgG1 mAb
- Kd (desacyl human ghrelin [3]): 0.226 nM

Binder: B4
- binding result (Fab 5611): no binding (tested: 1000 nM)
